Measured values published in patent US20230220095A1 (ALETA BIOTHERAPEUTICS, published 2023).
Values joined by “and” are separate entries in the source; they are usually repeats but may differ in a detail not shown here. Identical values can stand only once.

What was measured:
[1] = molecular target: T1, GPRC5D expressed on transfected HEK293 / 293T cells (UniProt Q9NZD1 1-345, limits assumed); assay: flow cytometry, titration of fusion protein supernatant on GPRC5D-transfected HEK293 cells, anti-His detection, % Binding
T1 construct: whole, on cells

[2] = molecular target: T1, GPRC5D expressed on transfected HEK293 …; assay: flow cytometry, titration of fusion protein supernatant on GPRC5D-transfected HEK293 cells, anti-BCMA detection, % Binding
CD38 on Daudi cells [3] = molecular target: T2, CD38 on Daudi cells (human, UniProt P28907 1-300); assay: flow cytometry, titration of fusion protein supernatant on Daudi cells (CD38), a-His-PE detection, % Binding
T2 construct: whole, on cells; Endogenous CD38 of Daudi cells
Procedure: (§1) Daudi cells were obtained from ATCC and cultured in RPMI containing 10% FCS. They were stained for BCMA using anti-BCMA-PE labeled antibody (BioLegend, #357504) and for CD38 using anti-CD38-PE labeled antibody (BioLegend, #356604), or stained with BCMA-containing fusion proteins as described herein. The cells were incubated with antibody or supernatant from A493 or A494 producing cells as follows. The Daudi cells were blocked with human Fc block (BD Biosciences, #BDB564129) for 10 minutes, washed and then diluted to 5×10e5 cells per 50 µl. For each sample, 50 µl of cells was aliquoted per well. For the direct stains, 5 µl of antibody in 50 µl was incubated with the cells for 30 minutes at 4° C. After washing with FACS buffer (FB: PBS, 1% BSA, 0.1% sodium azide), the cells were fixed with a final concentration of 2% paraformaldehyde in FB. For the BCMA fusion protein binding, 50 µl of A493 or A494 supernatant or 3x serial dilution of the supernatant in FB, was added and incubated for 30 minutes at 4° C. The cells were washed 2 times with FB and then stained with anti-His-PE antibody (R&D systems, #ICO5OP) or anti-BCMA-PE antibody (BioLegend, #357504) for 30 minutes at 4° C., the cells were pelleted and washed 2 times in FB and then fixed as above. The samples were analyzed on a BD Accuri 6 flow cytometer and analyzed using BD Accuri 6 software.

CD38 on Daudi cells [4] = molecular target: T2, CD38 on Daudi cells; assay: flow cytometry, titration of fusion protein supernatant on Daudi cells (CD38), a-BCMA-PE detection, % Binding
Procedure: as §1

[5] = molecular target: T1, GPRC5D expressed on transfected HEK293 …; assay: binding of HEK293 supernatants to GPRC5D-expressing HEK293 cells

T1 sequence (Q9NZD1 whole entry, the tested form may be a part): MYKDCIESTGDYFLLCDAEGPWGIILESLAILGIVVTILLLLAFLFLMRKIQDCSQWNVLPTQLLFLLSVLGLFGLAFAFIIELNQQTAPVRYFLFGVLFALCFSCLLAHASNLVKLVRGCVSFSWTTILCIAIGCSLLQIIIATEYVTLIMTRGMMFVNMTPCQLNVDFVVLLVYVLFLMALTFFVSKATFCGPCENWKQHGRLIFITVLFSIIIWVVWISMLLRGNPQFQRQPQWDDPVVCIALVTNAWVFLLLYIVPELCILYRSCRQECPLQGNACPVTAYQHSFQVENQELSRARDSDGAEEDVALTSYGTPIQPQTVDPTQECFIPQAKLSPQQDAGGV

EC50 [1]	EC50 [2]	binding result [5]	Binder	other results
0.0193 µg/mL and 0.572 nM	0.00669 µg/mL and 0.198 nM	–	anti-GPRC5D scFv-BCMA ECD-His fusion protein, construct 539 (other, scFv of construct 525 - G4Sx3 linker - BCMA ECD - His; Tested as HEK supernatant; also called A539; anti-GPRC5D-BCMA fusion protein) QSVVTQPPSMSAAPGQQVTISCSGGNSNIERNYVSWYLQLPGTAPKLVIFDNDRRPSGIPDRFSGSKSGTSATLGITGLQTGDEADYYCGTWDSSLRGWVFGGGTKLTVLGSRGGGGSGGGGSGGGGSLEMAEVQLVESGGGLIQPGGSLRLSCAASGFTFSNYAMNWVRQAPGKGLEWVSTINGRGSSTIYADSVKGRFTISRDNSKNTLYLQMNSLRAEDTATYYCARYISRGLGDSWGQGTLVTVSSGGGGSGGGGSGGGGSMLQMAGQCSQNEYFDSLLHACIPCQLRCSSNTPPLTCQRYCNASVTNSVKGTNAHHHHHH	–
–	–	–	BCMA-anti-CD38 fusion protein, construct #493 (BCMA ECD N-terminal to the anti-CD38 scFv, C-terminal His tag) (other, also called A493; N-terminal construct) MLQMAGQCSQNEYFDSLLHACIPCQLRCSSNTPPLTCQRYCNASVTNSVKGTNAGGGGSGGGGSGGGGSGGGGSDIQMTQSPSSLSASVGDRVTITCRASQGIRSWLAWYQQKPEKAPKSLIYAASSLQSGVPSRFSGSGSGTDFTLTISSLQPEDFATYYCQQYNSYPLTFGGGTKVEIKGGGGSGGGGSGGGGSGGGGSQVQLVQSGAEVKKPGSSVKVSCKAFGGTFSSYAISWVRQAPGQGLEWMGRIIRFLGIANYAQKFQGRVTLIADKSTNTAYMELSSLRSEDTAVYYCAGEPGERDPDAVDIWGQGTMVTVSSHHHHHH	EC50 (CD38 on Daudi cells [3]): 0.00218 µg/mL and 0.0642 nM; EC50 (CD38 on Daudi cells [4]): 0.0056 µg/mL and 0.165 nM
–	–	binds	anti-GPRC5D scFv, construct 522 (scFv, VL-G4Sx3-VH-His; Tested as HEK293 supernatant; also called A522) scFv: QSVLTQPASVSGSPGQSLTISCTGTSNDVGAYKYVSWYQQYPGKAPKLILYDVFKRPSGVSNRFSGSKSDNTASLTISGLQAEDEADYYCFSLTSSNTYVFGTGTKVTVLGSRGGGGSGGGGSGGGGSLEMAQMQLVQSGAEVKKPGASVKVSCKASGYTFNRYAITWVRQAPGQGLEWMGWISAYNGNSHYAQKLQGRVTMTTDTSTGTAYMELRRLRSDDTAVYYCARMAYDSWGQGTLVTVSSHHHHHH	–
0.0156 µg/mL and 0.469 nM	0.00553 µg/mL and 0.166 nM	–	anti-GPRC5D scFv-BCMA ECD-His fusion protein, construct 537 (other, scFv of construct 523 - linker - BCMA ECD - His; Tested as HEK supernatant; also called A537; anti-GPRC5D-BCMA fusion protein) QSVLTQPPSASGTPGQRVTISCSGSRSNVGGNYVFWYQQVPGATPKLLIYRSNQRPSGVPDRFAGSKSGSSASLAISGLRSEDEADYYCATWDDSLSGFVFGTGTKVTVLGSRGGGGSGGGGSGGGGSLEMAEVQLVESGGGLVKPGGSLRLSCAASGFTFSDYYMSWIRQAPGKGLEWVSYISSSGSTIYYADSVKGRFTISRDNAKNSLYLQMNSLRAEDTAVYYCARGYGKAYDQWGQGTLVTVSSGGGGSGGSMLQMAGQCSQNEYFDSLLHACIPCQLRCSSNTPPLTCQRYCNASVTNSVKGTNAHHHHHH	–
0.00608 µg/mL and 0.182 nM	0.00225 µg/mL and 0.067 nM	–	anti-GPRC5D scFv-BCMA ECD-His fusion protein, construct 538 (other, scFv of construct 524 - G4Sx3 linker - BCMA ECD - His; also called A538; bridging protein #538) SSELTQDPAVSVALGQTVRITCQGDSLRSYYASWYQQKPGQAPVLVIYGKNNRPSGIPDRFSGSSSGNTASLTITGAQAEDEADYYCNSRDSSGNPPVVFGGGTKLTVLGSRGGGGSGGGGSGGGGSLEMAQVQLVESGGGLVHPGGSLRLSCAASGFTFRSHSMNWVRQAPGKGLEWVSSISSDSTYTYYADSVKGRFTISRDNAKNSLYLQMNSLRAEDTAVYYCARSGGQWKYYDYWGQGTLVTVSSGGGGSGGGGSGGGGSMLQMAGQCSQNEYFDSLLHACIPCQLRCSSNTPPLTCQRYCNASVTNSVKGTNAHHHHHH	–
–	–	binds	anti-GPRC5D scFv, construct 523 (scFv, VL-G4Sx3-VH-His; Tested as HEK293 supernatant; also called A523) scFv: QSVLTQPPSASGTPGQRVTISCSGSRSNVGGNYVFWYQQVPGATPKLLIYRSNQRPSGVPDRFAGSKSGSSASLAISGLRSEDEADYYCATWDDSLSGFVFGTGTKVTVLGSRGGGGSGGGGSGGGGSLEMAEVQLVESGGGLVKPGGSLRLSCAASGFTFSDYYMSWIRQAPGKGLEWVSYISSSGSTIYYADSVKGRFTISRDNAKNSLYLQMNSLRAEDTAVYYCARGYGKAYDQWGQGTLVTVSSHHHHHH	–
–	–	–	BCMA-anti-CD38 fusion protein, construct #494 (BCMA ECD C-terminal to the anti-CD38 scFv, C-terminal His tag) (other, also called A494) DIQMTQSPSSLSASVGDRVTITCRASQGIRSWLAWYQQKPEKAPKSLIYAASSLQSGVPSRFSGSGSGTDFTLTISSLQPEDFATYYCQQYNSYPLTFGGGTKVEIKGGGGSGGGGSGGGGSGGGGSQVQLVQSGAEVKKPGSSVKVSCKAFGGTFSSYAISWVRQAPGQGLEWMGRIIRFLGIANYAQKFQGRVTLIADKSTNTAYMELSSLRSEDTAVYYCAGEPGERDPDAVDIWGQGTMVTVSSGGGGSGGGGSGGGGSGGGGSMLQMAGQCSQNEYFDSLLHACIPCQLRCSSNTPPLTCQRYCNASVTNSVKGTNAHHHHHH	EC50 (CD38 on Daudi cells [3]): 0.00315 µg/mL and 0.093 nM; EC50 (CD38 on Daudi cells [4]): 0.0123 µg/mL and 0.364 nM
–	–	binds	anti-GPRC5D scFv, construct 525 (scFv, VL-G4Sx3-VH-His; Tested as HEK293 supernatant; also called A525) scFv: QSVVTQPPSMSAAPGQQVTISCSGGNSNIERNYVSWYLQLPGTAPKLVIFDNDRRPSGIPDRFSGSKSGTSATLGITGLQTGDEADYYCGTWDSSLRGWVFGGGTKLTVLGSRGGGGSGGGGSGGGGSLEMAEVQLVESGGGLIQPGGSLRLSCAASGFTFSNYAMNWVRQAPGKGLEWVSTINGRGSSTIYADSVKGRFTISRDNSKNTLYLQMNSLRAEDTATYYCARYISRGLGDSWGQGTLVTVSSHHHHHH	–
0.86 nM and 0.0287 µg/mL	0.00509 µg/mL and 0.152 nM	–	anti-GPRC5D scFv-BCMA ECD-His fusion protein, construct 536 (other, scFv of construct 522 - linker - BCMA ECD - His; Tested as HEK supernatant; also called A536; anti-GPRC5D-BCMA fusion protein) QSVLTQPASVSGSPGQSLTISCTGTSNDVGAYKYVSWYQQYPGKAPKLILYDVFKRPSGVSNRFSGSKSDNTASLTISGLQAEDEADYYCFSLTSSNTYVFGTGTKVTVLGSRGGGGSGGGGSGGGGSLEMAQMQLVQSGAEVKKPGASVKVSCKASGYTFNRYAITWVRQAPGQGLEWMGWISAYNGNSHYAQKLQGRVTMTTDTSTGTAYMELRRLRSDDTAVYYCARMAYDSWGQGTLVTVSSGGGGSGGGGSMLQMAGQCSQNEYFDSLLHACIPCQLRCSSNTPPLTCQRYCNASVTNSVKGTNAHHHHHH	–
–	–	binds	anti-GPRC5D scFv, construct 524 (scFv, VL-G4Sx3-VH-His; Tested as HEK293 supernatant; also called A524) scFv: SSELTQDPAVSVALGQTVRITCQGDSLRSYYASWYQQKPGQAPVLVIYGKNNRPSGIPDRFSGSSSGNTASLTITGAQAEDEADYYCNSRDSSGNPPVVFGGGTKLTVLGSRGGGGSGGGGSGGGGSLEMAQVQLVESGGGLVHPGGSLRLSCAASGFTFRSHSMNWVRQAPGKGLEWVSSISSDSTYTYYADSVKGRFTISRDNAKNSLYLQMNSLRAEDTAVYYCARSGGQWKYYDYWGQGTLVTVSSHHHHHH	–
